In doi:10.1101/2023.05.01.538945, “Structural basis of Gabija anti-phage defense and viral immune evasion” (bioRxiv, 2023):

B1: Bacillus cereus VD045 GajB (Gabija protein B), untagged, co-expressed with GajA (enzyme)
chain: SREQIIKDGGNILVTAGAGSGKTTILVSKIEADLKENKTHYSIAAVTFTNKAAKEIEGRLGYSSRGNFIGTNDGFVESEIIRPFIKDAFGNDYPDNFTAEYFDNQFASYDKGLQVLKYQNILGTYSNPKKNFKFQLALDILKKSLVARQYIFSKYFKIFIDEYQDSDKDMHNLFMYLKDQLKIKLFIVGDPKQSIYIWRGAEPENFNGLIENSTDFNKYHLTSNFRCCQDIQNYSNLFNEETRSLIKEKNEVQNVISIADDMPISDILLKLTEEKQVLNIEAELVILVRRRNQAIEIMKELNEEGFNFIFIPQTPLDRATPNATLLKEVIKYVKNDRYSIYDLAAEIVGNLSSREIKEIQKIINELLVPNINQVLINQVLINLFAKLEITLDTREITAFTEVMMTNEFDIAFDTNEYLHKIFTVHSAKGLEFNQVIITASDYNVHYNRDTNEHYVATTRAKDKLIVIMDNKKYSDYIETLMKELKIKNIIKSI
notes: GajB (Gabija protein B), Superfamily 1A helicase, Bacillus cereus VD045, IMG ID 2519684553; codon-optimized synthetic gene; GajB chain of the GajAB crystal structure and of the GajAB-Gad1 cryo-EM structure; also called BcGajB
B2: Bacillus cereus VD045 GajA (Gabija protein A), co-expressed with GajB, tag removed (enzyme)
chain: KFSNITIKNFRNFEKVNINLDNKNVIFGMNDIGKTNFLYALRFLLDKEIRKFGFNKSDYHKHDTSKKIEIILTLDLSNYEKDEDTKKLISVVKGARTSANADVFYIALESKYDDKELYGNIILKWGSELDNLIDIPGRGNINALDNVFKVIYINPLVDLDKLFAQNKKYIFEESQGNESDEGILNNIKSLTDQVNQQIGEMTIIKGFQQEITSEYRSLKKEEVSIELKSEMAIKGFFSDIIPYIKKDGDSNYYPTSGDGRRKMLSYSIYNYLAKKKYEDKIVIYLIEEPEISLHRSMQIALSKQLFEQSTYKYFFLSTHSPELLYEMDNTRLIRVHSTEKVVCSSHMYNVEEAYGSVKKKLNKALSSALFAERVLLIEGPSEKILFEKVLDEVEPEYELNGGFLLEVGGTYFNHYVCTLNDLGITHIIKTDNDLKSKKGKKGVYELLGLNRCLNLLGRENLDEITIDIPEDIKGKKKKERLNERKKEIFKQYKNEVGEFLGERIYLSEIDLENDLYSAIGESMKRIFENEDPVHYLQKSKLFNMVELVNNLSTKDCFDVFEHEKFACLKELVGSDRG
notes: GajA (Gabija protein A), Class 2 OLD nuclease, Bacillus cereus VD045, IMG ID 2519684552; codon-optimized synthetic gene; GajA chain of the GajAB crystal structure; The 5xGS linker probably stays on GajA after SENP2 cleavage (surmise); also called BcGajA; source: E. coli BL21(DE3) or BL21(DE3)-RIL, co-expressed with GajB, purified (Ni-NTA, SUMO2 cleavage by hSENP2, SEC); not shown: …
B3: Bacillus cereus VD045 GajA alone, C-terminal 6xHis (enzyme)
chain: B2 chain
notes: GajA, Bacillus cereus VD045, IMG ID 2519684552; also called BcGajA; source: E. coli BL21(DE3) or BL21(DE3)-RIL, purified (Ni-NTA, SEC); for the Ni-NTA co-purification co-expressed with Shewanella phage 1/4 Gad1; not shown: 6xHis, C-terminal, kept

Columns and labels:
[1] = molecular target: B2; assay: crystal structure; GajAB co-expressed in E. coli and purified as a complex; hanging drop, 18°C, 100 mM HEPES-NaOH pH 7.5, 2.4% PEG-400, 2.2 M ammonium sulfate; 3.0 Å; conditions: both partners purified
[2] = molecular target: the molecule itself; assay: as above
[3] = molecular target: the molecule itself; assay: SEC; 16/600 S200 (Superdex 200); purified recombinant BcGajA alone, BcGajB alone and the co-expressed BcGajAB complex

B1
stoichiometry N [1]: 1 GajB per GajA (4:4)

B2
stoichiometry N [2]: 4

B3
stoichiometry N [3]: 4
